Patent publication US20230382979A1 (ADAPTIVE BIOTECHNOLOGIES, published 2023)

Tests used:
[1] = biological target: SARS-CoV-2 spike protein, WA1/2020, borne on lentiviral pseudovirus (SARS-CoV-2, WA01/2020 strain, UniProt P0DTC2 14-1273); test: cell-based or functional assay
[2] = biological target: S2 subunit of the SARS-CoV-2 spike protein, WA01/2020 strain (SARS-CoV-2, WA01/2020 strain, UniProt P0DTC2 686-1213); test: ELISA, antibody at 0.1 ug/mL
[3] = biological target: T1, SARS-CoV-2 nucleocapsid (N) protein (SARS-CoV-2, UniProt P0DTC9 1-419); test: ELISA, antibody at 0.1 ug/mL
[4] = biological target: S1 subunit of the SARS-CoV-2 spike protein, WA01/2020 strain (SARS-CoV-2, WA01/2020 strain, UniProt P0DTC2 16-685); test: ELISA screening, antibody concentration not given
[5] = biological target: T1, SARS-CoV-2 nucleocapsid (N) protein; test: ELISA screening, antibody concentration not given

Binder | Pseudo Neut, WA1/2020 IC50 (pM) [1] [pM] | binding result [2] | binding result [3] | binding result [4] | binding result [5]
antibody 4441 (antibody, V domains shown) VH: EVQLVESGGGLVQPGRSLRLSCAASGLTFEDYAMHWVRQPPGKGLEWVSGVSWNSGTIGYADSVKGRFTISRDNAKNSLYLHMRSLGAEDTAMYYCAKDMGGRFSFFSLENDAFDIWGQGTMVIVSS VL: SYELTQPPSVSVSPGQTARITCSGDALPKQSTYWYQQKPGQAPVLVIYKDIERPSGIPERFSGSSSGTTVTLTISGVQAEDEADYYCQSADSSDTYVFGTGTKVTVL | 276 | no binding (tested: 0.1 ug/mL) | no binding (tested: 0.1 ug/mL) | – | –
antibody 2892 (antibody, V domains shown) VH: QVQLVQSGAEVKKPGSSVKVSCKASGDAFISYAISWVRQAPGQGLEWMGGIIPIFGTANYAQKFQGRVTISADESTSTAYMELSRLRSEDTAVYYCARGGPEPYGSGSGYTPRYNWFDPWGQGTLVTVSS VL: QSALTQPRSVSGSPGQSVTISCTGTSSDVGGYNYVSWYQQHPGKAPKFMIYDVNRRPSGVPDRFSGSKSGNTASLTISGLQAEDEADYYCCSYAGTYTWVFGGGTKLTVL | 65 | no binding (tested: 0.1 ug/mL) | no binding (tested: 0.1 ug/mL) | – | –
antibody 3086 (antibody, V domains shown) VH: QVQLQESGPGLVKPSETLSLTCTVSGGSISGHYWSWIRQPPGKGLEWIGYIYYSGSTNYNPSLKSRVTISVDTSVNQFSLKLSSVTAADTAVYYCARQEARDAVGNYFFDSWGQGTLVTVSS VL: QSALTQPASVSGSPGQSITISCSGTSSDIGSYDLVSWYQQHPGKAPKLLIYDVTKRPSGVSHRFSGSKSGNTASLTISGLQGEDEADYYCCSYVHFSTWVFGGGTKLTVL | 82 | – | – | – | –
antibody 2729 (antibody, V domains shown) VH: QVTLKESGPVLVKPTETLTLTCTVSGFSLSNARMGVSWIRQPPGKALEWLAHIFSNDEKSYSTYLKSRLTISKDSSKSQVVLTMTIMDPVDTATYYCARTAGRYSSRWGHYYYYMDVWGKGTTVTVSS VL: NFMLTQPHSVSESPGKTVTISCTGSNGSIASNFMQWYQQRPGSAPTIVIYEDNQRPSGVPDRFSGSIDGSSNSASLTISGLKTEDEADYYCQSYDSSDSDLGVFGGGTKLTVL | 584 | no binding (tested: 0.1 ug/mL) | no binding (tested: 0.1 ug/mL) | – | –
antibody 2706 (antibody, V domains shown) VH: QVQLVQSGAEVKKPGSSVKVSCKASGGTFSTYAISWVRQAPGQGLEWMGGIIPLFATANYAQNFQGRVTITADKSTSTAYMELSSLRSEDTAVYYCASVRLHLEELSLSHQGDYYYGLDVWGQGTTVTVSS VL: DIQMTQSPSSLSASVADRVTITCQASQDISHYLNWYQQKPGKAPQLLIYDASKLETGAPSRFSGSGSGTDFTFTISSLQPEDIATYYCQQYDHLPLTFGGGSKVEIK | 795 | no binding (tested: 0.1 ug/mL) | no binding (tested: 0.1 ug/mL) | – | –
antibody 980 (antibody, V domains shown) VH: QVQLVESGGGVVQPGRSLRLSCAASGFTFSRYGMHWVRQAPGKGLEWVALISSGGSNKYYADSVKGRFTISRDNSKNTLYLEMNSLRAEDTAVYYCAKDAIYDYIWGAYRENWFDPWGQGTLVTVSS VL: DIQMTQSPSSLSASVGDRVTITCRASQSISNYLNWYQQKPGKAPNLLIYAASSLQSGVPSRFSGSGSGTDFTLTISSLQPEDFATYYCQQTSSPPLTFGQGTKVEIK | 952 | no binding (tested: 0.1 ug/mL) | no binding (tested: 0.1 ug/mL) | – | –
antibody 1213 (antibody, V domains shown) VH: QMQLVQSGAEVKKTGSSVKVSCEASENTFTNRYLHWVRQAPGQALEWMGWITPFQGNTHYAQKFQDRVTITRDRSMNTVYMELSSLRSEDTAIYYCASGGQYGPGSYYFEFWGQGTLVTVSS VL: EIVMTQSPATLSVSPGERATLSCRASQSIRNNLAWYRQKPGQAPRLLIYGASTRAAGVPARFSGSGSGTEFTLTISSLQSEDFAVYYCQQYINWPPLTFGGGTKVEIK | 90600 | – | – | – | –
antibody 1227 (antibody, V domains shown) VH: QMQLVQSGAEVKKTGSSVKVSCEASGYTFTNRYLHWVRQAPGQALEWMGWITPFQGNTNYAQKFQDRVTITRDMSMNTVYMELSSLRSEDTAKYYCASGGQYGAGSYYLEDWGQGTLVTVSS VL: EIVMTQSPATLSVSPGERATLSCRASQSVRSNLAWYRQKPGQAPRLLIYGASTRATGVPARFSGSGSGTEFTLTISSLQSEDFAVYYCQQYINWPPLTFGGGTRVEIK | 116000 | – | – | – | –
antibody 1231 (antibody, V domains shown) VH: QVQLVQSGSELKKPGASVKVSCTGYGYTFTSYAMNWVRQAPGQGLEWMGWINTNTGHPAYAQGFTGRFVFSLDSSVSTAYLQISSLKAEDTAVYYCATTIRAGGYFDFWGQGTLVTVSS VL: DIQLTQSPSFLSASVGDRVTITCRASQGISSYLAWFQQKPGKAPKLLIYVVSILQSGVPSRFSGSGSGTEFTLTISSLQPEDFATYYCQQLNSYPYTFGQGTKLEIK | 95000 | – | – | – | –
antibody 1679 (antibody, V domains shown) VH: QITLKESGPTLVKPTQTLTLTCTFSGFSLSTVGVGVAWIRQPPGKALEWLALIYWDDDKRYSPSLKSRLTITKDTSKNHVVLTMTNMDPVDTATYYCAHHIIAALVDVWGKGTTVTVSS VL: QSALTQPASVSGSPGQSITISCTGTSSDVGGNNYVSWYQHHPGEAPKLMIYEVSNRPSGVSNRFSGSKSGNTASLTISGLQAEDEADYYCSSYTTSSTLVVFGGGSKLTVL | > 163 | – | – | – | –
antibody 935 (antibody, V domains shown) VH: EVQLVESGGGLVQPGGSLRLSCAASGFTVSSNYMSWVRQAPGKGLEWVSVIYSGGSTFYADSVKGRFTISRDNSRNTLYLQMNSLRAEDTAVYYCARDWGEFFFDFWGQGALVTVSS VL: EIVLTQSPGTLSLSPGERATLSCRASQTISSSYLAWYQQKPGQAPRLLISGASSRATGIPDRFSGSGSGTDFTLTISRLEPEDFAVYYCQQYGSSPRTFGQGTNVEIK | 420 | – | – | – | –
antibody 2020 (antibody, V domains shown) VH: QVQLVQSGAEVKKPGASVKVSCKASGYTFTDYFMHWVRQAPGQGLEWMGWVNPLSGGTNFAQKFQGRVTMTSDTSITTVYMELSRLRSDDTAVYYCARDPPLYSSTYGMDVWGQGTTVTVSS VL: QSALTQPASVSGSPGQSITISCTGTSSDVGAYNYVSWYQQHPGKAPKLMIYDVSDRPSGVSNRFSGSKSGNTASLTISGLQAEDEADYYCSSYTISSSVVFGGGTKLTVL | 214 | no binding (tested: 0.1 ug/mL) | no binding (tested: 0.1 ug/mL) | – | –
antibody 2619 (antibody, V domains shown) VH: EVQLVESGGGLVQPGRSLRLSCAASGFTFDDYAMHWVRQAPGKGLEWVSGISWNSGSIGYADSVKGRFTLSRDNAKNSLFLQMDSLRAEDTALYYCAKDVSYRSGSYYRFWGGSGSWGQGTLVTVSS VL: DIQMTQSPSSLSASVGDRVTITCRASLSIRSYLNWYQQKPGKPPKLLIYAASSLQSGVPSRFSGSGSGTDFTLTISSLQPEDFATYYCQQSYSTPLTFGGGTKVEIK | 213 | – | – | – | –
antibody 1864 (antibody, V domains shown) VH: QVQLQESGPGLVKPSETLSLTCTVSGGSINYYYWSWIRQPPGKGLEWIGFIYSSGTTNYNPSLKSRVTMSVDSSKSQFSLKLSSVTAADSAVYYCARHSRSCTNGVCQTYYYYALDVWGHGTTVTVSS VL: QSVLTQPPSVSGAPGQRVTISCTGSSSNIGAGYDVHWYQQLPGTAPKLLIYGNSNRPSGVPDRFSASKSGTSASLAIAGLQPEDEGDYYCQSYDGSLSESGVFGGGTRLTVL | – | – | – | no binding (tested: not printed) | no binding (tested: not printed)
antibody 1851 (antibody, V domains shown) VH: QVQLQESGPGLVKPSETLSLTCTVSGGSINYYYWSWIRQSPGKGLEWIGFIYSSGTTNYNPSLKSRVTMSVDSSKSQFSLKLSSVTAADSAVYYCARHSRSCTNGVCQTYYYYALDVWGHGTTVTVSS VL: QSVLTQPPSVSGAPGQRVTISCTGSSSNIGAGYDVHWYQQLPGTAPKLLIYGNSNRPSGVPDRFSASKSGTSASLAIAGLQPEDEGDYYCQSYDGSLSESGVFGGGTRLTVL | – | – | – | no binding (tested: not printed) | no binding (tested: not printed)
antibody 1870 (antibody, V domains shown) VH: QVQLQESGPGLVKPSETLSLTCSVSGGSINYYYWSWIRQPPGKGLEWIGFIYSSGTTNYNPSLKSRVTMSVDTSKNQFSLKLSSVTAADSAVYYCARHSRSCTNGVCQTYYYYALDVWGHGTTVTVSS VL: QSVLTQPPSVSGAPGQRVTISCTGSSSNIGAGYDVHWYQQLPGTAPKLLIYGNSNRPSGVPDRFSASKSGTSASLAIAGLQAEDEGDYYCQSYDGSLSESGVFGGGTRLTVL | – | – | – | no binding (tested: not printed) | no binding (tested: not printed)
antibody 1826 (antibody, V domains shown) VH: QVQLQESGPGLVKPSETLSLTCSVTGGSTNYYYWSWIRQPPGKGLEWIGYIYYSGTTNYNPSLKDRVTMSVDKSKTQLSLKLNSVTAADTAVYYCARHARHCTNGVCQTYYYYGLDVWGLGTTVAVSA VL: QSVLTQPPSVSAAPGQRVTISCSGSSSNIGAGYDVHWYQHLPGTAPKLLIYNNNNRPSGVPDRFSASRSGTSASLAITGVQTEDEADYYCQSFDGRLSESGVFGGGTKLTVL | – | – | – | no binding (tested: not printed) | no binding (tested: not printed)
